“Also recorded” adds a separate entry of the source. Blank lines part the entries; values can stand above or below the molecule they belong to. Where no end group is shown, it is not given here.
Tests used:
LGR8 [1] = target: T1, LGR8 (Homo sapiens, UniProt Q8WXD0); assay: Receptor-binding assay: competition for 125I-labeled RLN2 binding to LGR8-expressing HEK293T cells; details: for LGR8-binding activity (result in words): competition for labeled RLN2 binding to LGR8
T1 construct: HEK293T cells stably expressing recombinant LGR7 or LGR8; expressed in transfected cells
Protocol: (§1) To determine the binding characteristics of wild type and mutant peptides, HEK293T cells expressing LGR7 or LGR8 were grown to 90% confluence, collected by centrifugation at 3000×g for 2 min, and washed two times in 2 ml of ice-cold binding buffer. Cells were resuspended in ice-cold binding buffer, and aliquots of cell suspension were incubated with increasing doses of purified recombinant peptides in the presence of 0.025 pmol of ^125I-labeled RLN2 tracer (Phoenix Pharmaceuticals, Burlingame, Calif.) at room temperature for 2 h. After washing three times in an ice-cold binding buffer, radioactivity bound to the cells was measured using a γ-counter (EG&G Wallace, Gaithersburg, Md.). Total binding was determined in the absence, and nonspecific binding in the presence, of 25 nmol of unlabeled RLN2. In regular assays, total binding was ˜30,000 cpm, and nonspecific binding amounted to less than 20% of the total binding. Data points were collected in triplicate, and similar results were obtained in at least two independent assays.
(§2) Receptor-activation and receptor binding activity curves generated in nonlinear regression analyses (Prism; GraphPad Software, San Diego, Calif.) were evaluated relative to the samples without hormone treatment. In all cases data are reported as the mean±S.E. of assays in triplicate or quadruplicate. Statistically significant responses (p<0.05) were determined for each stimulated response to the average nonspecific response from control samples using analysis of variance and Student's t test.

LGR8 [2] = target: T1, LGR8; assay: Receptor-activation analysis: cAMP production in LGR8-expressing HEK293T cells; type: cell-based; details: for LGR8-activation activity (result in words): LGR8-expressing HEK293T cells
Protocol: (§3) The bioactivity of relaxin family peptides was determined based on the stimulation of adenylate cyclase activity in HEK293T cells stably expressing recombinant LGR7 or LGR8. Stable LGR7- or LGR8-expressing cells were maintained in Dulbecco's modified Eagle's medium/F-12 media supplemented with […] Zeocin (Invitrogen). After seeding at a density of 2×10^5 cells per well in 500 μl of Dulbecco's modified Eagle's medium/F-12 medium containing 0.1% bovine serum albumin in 48-well plates, cells were preincubated at 37° C. for 30 min in the presence of 0.25 mM 3-isobutyl-1-methylxanthine before treatment with increasing concentrations of peptides (from 0 to 100 nM) in quadruplicate. Twelve hours after treatment, the culture was reacted with acetic anhydride/triethylamine, and total cAMP content in cell lysates was measured using a specific cAMP radioimmunoassay. A nontagged human RLN2 peptide was used as a standard to verify the bioactivity of tagged RLN2 peptides.
as §2

LGR7 [3] = target: T2, LGR7 (Homo sapiens, UniProt Q9HBX9); assay: Receptor-binding assay: competition for 125I-labeled RLN2 binding to LGR7-expressing HEK293T cells; details: for LGR7-binding activity (result in words): competition for labeled RLN2 binding to LGR7
T2 construct: HEK293T cells stably expressing recombinant LGR7 or LGR8; expressed in transfected cells
T2 sequence (Q9HBX9 1-757): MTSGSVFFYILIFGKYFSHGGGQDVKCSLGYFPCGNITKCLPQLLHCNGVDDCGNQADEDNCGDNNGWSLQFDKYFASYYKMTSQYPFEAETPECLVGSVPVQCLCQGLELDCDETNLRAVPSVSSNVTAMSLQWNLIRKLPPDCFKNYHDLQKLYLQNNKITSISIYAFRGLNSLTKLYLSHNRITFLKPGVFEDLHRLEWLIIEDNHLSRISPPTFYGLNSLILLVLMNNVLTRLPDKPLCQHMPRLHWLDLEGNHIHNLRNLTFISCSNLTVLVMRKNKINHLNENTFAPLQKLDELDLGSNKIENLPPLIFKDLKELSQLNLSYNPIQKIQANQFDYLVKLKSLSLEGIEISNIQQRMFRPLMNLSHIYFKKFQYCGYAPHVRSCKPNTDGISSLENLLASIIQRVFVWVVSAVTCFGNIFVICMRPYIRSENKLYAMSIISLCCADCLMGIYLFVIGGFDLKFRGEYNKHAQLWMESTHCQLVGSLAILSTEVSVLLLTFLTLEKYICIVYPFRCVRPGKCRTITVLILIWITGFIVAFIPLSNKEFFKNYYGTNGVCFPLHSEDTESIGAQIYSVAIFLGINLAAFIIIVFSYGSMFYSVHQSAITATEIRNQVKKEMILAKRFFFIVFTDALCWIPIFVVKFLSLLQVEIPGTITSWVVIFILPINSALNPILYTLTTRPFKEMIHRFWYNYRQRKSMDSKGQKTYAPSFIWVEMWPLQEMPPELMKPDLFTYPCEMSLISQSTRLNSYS
Protocol: as §1, §2

LGR7 [4] = target: T2, LGR7; assay: Receptor-activation analysis: cAMP production in LGR7-expressing HEK293T cells; type: cell-based; details: for LGR7-activation activity (result in words): LGR7-expressing HEK293T cells
Protocol: as §3, §2

T1 sequence (Q8WXD0 whole entry): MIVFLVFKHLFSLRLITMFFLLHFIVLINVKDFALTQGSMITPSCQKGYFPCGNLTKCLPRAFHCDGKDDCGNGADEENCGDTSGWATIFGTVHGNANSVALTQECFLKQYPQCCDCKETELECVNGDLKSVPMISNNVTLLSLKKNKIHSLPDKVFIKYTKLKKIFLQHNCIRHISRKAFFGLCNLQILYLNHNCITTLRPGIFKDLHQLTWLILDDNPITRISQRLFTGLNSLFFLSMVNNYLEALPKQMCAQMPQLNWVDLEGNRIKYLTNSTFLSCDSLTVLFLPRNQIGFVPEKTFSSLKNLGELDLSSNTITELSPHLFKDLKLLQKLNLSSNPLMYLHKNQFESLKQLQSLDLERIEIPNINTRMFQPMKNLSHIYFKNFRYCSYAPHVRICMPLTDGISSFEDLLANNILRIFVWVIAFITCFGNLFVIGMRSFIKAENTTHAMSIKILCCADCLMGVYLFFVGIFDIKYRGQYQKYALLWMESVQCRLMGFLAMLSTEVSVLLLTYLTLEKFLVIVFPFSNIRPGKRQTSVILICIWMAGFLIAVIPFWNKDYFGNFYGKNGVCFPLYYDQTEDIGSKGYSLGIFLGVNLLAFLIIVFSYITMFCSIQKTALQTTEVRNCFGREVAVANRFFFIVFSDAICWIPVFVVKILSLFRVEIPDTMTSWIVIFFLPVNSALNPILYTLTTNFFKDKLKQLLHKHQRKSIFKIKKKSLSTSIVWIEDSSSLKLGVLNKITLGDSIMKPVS

Molecule: RLN2^A22-23: RLN2 mutant with alanine substitution at the A22-23 region of the A chain (chain 1 SWMEEVIKLCGRELVRAQIAICGMSTWSHHHHHH; chain 2 QLYSALANKCCHVGCTKRSLAAAC; not fully specified; ends and bridges not checked)
- LGR8-binding activity (result in words) (LGR8 [1]): lost its LGR8-binding activity
- LGR8-activation activity (result in words) (LGR8 [2]): ablates LGR8, but not LGR7, activation activity; also recorded: almost abolished
- LGR7-binding activity (result in words) (LGR7 [3]): reduced affinity for LGR7

Molecule: RLN2 R^A22A: RLN2 mutant with alanine substitution at the ArgA22 position (chain 1 SWMEEVIKLCGRELVRAQIAICGMSTWSHHHHHH; chain 2 QLYSALANKCCHVGCTKRSLAAFC; not fully specified; ends and bridges not checked)
- LGR7-activation activity (result in words) (LGR7 [4]): minimal effect
- LGR8-activation activity (result in words) (LGR8 [2]): minimal effect
- LGR7-binding activity (result in words) (LGR7 [3]): affinities similar to that of wild type peptides

Molecule: RLN2 C-8: Myc- and His6-tagged RLN2 from construct with a truncated C-domain of 8 amino acids (chain 1 SWMEEVIKLCGRELVRAQIAICGMSTWSHHHHHH; chain 2 QLYSALANKCCHVGCTKRSLARFC; ends and bridges not checked; also: Myc tag, not in given chain)
- LGR7-binding activity (result in words) (LGR7 [3]): high affinity

Further lines, with some results ahead:

- LGR7-activation activity (result in words) (LGR7 [4]; listed as FA23A): preferentially activate LGR7
- LGR8-binding activity (result in words) (LGR8 [1]; listed as RLN2 F^A23A): significantly reduced
- LGR8-activation activity (result in words) (LGR8 [2]; listed as RLN2 FA23A): lacks an LGR8-activation activity
- LGR8-activation activity (result in words) (LGR8 [2]; listed as RLN2 F^A23A): ablated
Molecule: RLN2 P^A23A: RLN2 mutant with alanine substitution at the PheA23 position (chain 1 SWMEEVIKLCGRELVRAQIAICGMSTWSHHHHHH; chain 2 QLYSALANKCCHVGCTKRSLARAC; not fully specified; ends and bridges not checked)
- LGR7-activation activity (result in words) (LGR7 [4]; listed as RLN2 FA23A): retains an LGR7-activation activity similar to that of wild type peptides
- LGR8-binding activity (result in words) (LGR8 [1]; listed as RLN2 FA23A): significantly reduced the affinity for LGR8
- LGR7-binding activity (result in words) (LGR7 [3]; listed as RLN2 FA23A): affinities similar to that of wild type peptides
- LGR7-binding activity (result in words) (LGR7 [3]; listed as RLN2 F^A23A): without an effect on LGR7-binding activity

- pEC50 on the activation of LGR7 (LGR7 [4]; HEK293T cells stably expressing LGR7, mean ± S.E., ND = pEC50 not measurable): 9.30 ± 0.04
- pIC50 in competition for RLN2 binding to LGR8 (LGR8 [1]; 125I-labeled RLN2 tracer, LGR8-expressing HEK293T cells, mean ± S.E., ND = pIC50 not measurable): 7.90 ± 0.16
- pEC50 on the activation of LGR8 (LGR8 [2]; HEK293T cells stably expressing LGR8, mean ± S.E., ND = pEC50 not measurable): 7.41 ± 0.14
- pIC50 in competition for RLN2 binding to LGR7 (LGR7 [3]; 125I-labeled RLN2 tracer, LGR7-expressing HEK293T cells, mean ± S.E.): 8.72 ± 0.06
B1: WT RLN2: recombinant tagged wild type human relaxin H2 (RLN2) (protein, listed as Homo sapiens)
chain: MPRLFFFHLLGVCLLLNQFSRAVADSWMEEVIKLCGRELVRAQIAICGMSTWSKRSLSQEDAPQTPRPVAEIVPSFINKDTETINMMSEFVANLPQELKLTLSEMQPALPQLQQHVPVLKDSSLLFEEFKKLIRNRQSEAADSSPSELKYLGLDTHSRKKRQLYSALANKCCHVGCTKRSLARFC
modifications: tag; RLN2 polypeptide
- LGR7-activation activity (result in words) (LGR7 [4]): activates both receptors at the nanomolar range
- LGR8-activation activity (result in words) (LGR8 [2]): activates both receptors at the nanomolar range
